Here are results for 94 variants from the supplement of paper PMC10567573.

B1: STEAP1 (parent)
chain: LWKMKPRRNLEEDDYLHKDTGETS
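Further: lentivirally expressed fusions sorted by FACS into six bins by GFP to DsRed ratio, PSI derived from sequencing read proportions per bin multiplied by bin number.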

Variants of B1 are the subject of the series. The experiment in a line: protein stability index of a GFP-peptide fusion (GPS, HEK-293T) (PSI 1-6); higher = more stable. The conditions noted are these: c terminus: a fixed tail appended.
For LWKIKPRRNLEEDDYLHKDTGETS [M4I], the protein stability index amounted to 4.36.

LWKTKPRRNLEEDDYLHKDTGETS [M4T]: the protein stability index is 4.62.

With LWKCKPRRNLEEDDYLHKDTGETS [M4C], the protein stability index was determined as 4.27.

In the case of LWKDKPRRNLEEDDYLHKDTGETS [M4D], the protein stability index was determined as 5.16.

For LWKKKPRRNLEEDDYLHKDTGETS [M4K], the protein stability index stood at 4.19.

Take LWKYKPRRNLEEDDYLHKDTGETS [M4Y]: the protein stability index was found to be 4.41.

Consider TWKMKPRRNLEEDDYLHKDTGETS [L1T], for which the protein stability index stood at 5.

With FWKMKPRRNLEEDDYLHKDTGETS [L1F], the protein stability index came out at 4.31.

For the variant EWKMKPRRNLEEDDYLHKDTGETS [L1E], the protein stability index was 5.32.

Consider AWKMKPRRNLEEDDYLHKDTGETS [L1A], for which the protein stability index amounted to 5.06.

For the variant PWKMKPRRNLEEDDYLHKDTGETS [L1P], the protein stability index was found to be 5.08.

Take SWKMKPRRNLEEDDYLHKDTGETS [L1S]: the protein stability index turned out to be 4.78.

As to LWKMKPRRKLEEDDYLHKDTGETS [N9K], the protein stability index is 4.44.

Consider LWKMKPRRTLEEDDYLHKDTGETS [N9T], for which the protein stability index was determined as 4.49.

Regarding LWKMKPRRRLEEDDYLHKDTGETS [N9R], the protein stability index stood at 4.23.

Take LWKMKPRRNMEEDDYLHKDTGETS [L10M]: the protein stability index turned out to be 4.26.

Consider LWKMKPRRNFEEDDYLHKDTGETS [L10F], for which the protein stability index was found to be 4.24.

As for LWKMKPRRNKEEDDYLHKDTGETS [L10K], the protein stability index is 4.48.

LWKMKPRRNPEEDDYLHKDTGETS [L10P]: the protein stability index worked out at 4.86.

In the case of LWRMKPRRNLEEDDYLHKDTGETS [K3R], the protein stability index is 4.28.

Regarding LWTMKPRRNLEEDDYLHKDTGETS [K3T], the protein stability index was 4.36.

For the variant LWCMKPRRNLEEDDYLHKDTGETS [K3C], the protein stability index amounted to 3.49.

As for LWQMKPRRNLEEDDYLHKDTGETS [K3Q], the protein stability index turned out to be 4.88.

On to LWEMKPRRNLEEDDYLHKDTGETS [K3E], for which the protein stability index was 5.19.

Turning to LWKMKPRRNLHEDDYLHKDTGETS [E11H], the protein stability index stood at 4.26.

For the variant LWKMKPRRNLCEDDYLHKDTGETS [E11C], the protein stability index turned out to be 3.79.

For the variant LWKMKPRRNLDEDDYLHKDTGETS [E11D], the protein stability index came to 4.

In the case of LWKMKPRRNLLEDDYLHKDTGETS [E11L], the protein stability index was 3.88.

As to LWKMKPRRNLVEDDYLHKDTGETS [E11V], the protein stability index amounted to 4.28.

Turning to LWKMKPRRNLGEDDYLHKDTGETS [E11G], the protein stability index stood at 3.93.

For the variant LWKMTPRRNLEEDDYLHKDTGETS [K5T], the protein stability index was found to be 4.56.

Regarding LWKMQPRRNLEEDDYLHKDTGETS [K5Q], the protein stability index turned out to be 4.86.

Turning to LWKMYPRRNLEEDDYLHKDTGETS [K5Y], the protein stability index was 3.9.

On to LWKMKPLRNLEEDDYLHKDTGETS [R7L], for which the protein stability index was found to be 4.4.

For the variant LWKMKPYRNLEEDDYLHKDTGETS [R7Y], the protein stability index was found to be 3.94.

Regarding LWKMKPMRNLEEDDYLHKDTGETS [R7M], the protein stability index was found to be 4.51.

Take LWKMKPRRNLEEDNYLHKDTGETS [D14N]: the protein stability index worked out at 4.4.

As for LWKMKVRRNLEEDDYLHKDTGETS [P6V], the protein stability index was 3.96.

In the case of LWKMKERRNLEEDDYLHKDTGETS [P6E], the protein stability index was 5.13.

For LWKMKQRRNLEEDDYLHKDTGETS [P6Q], the protein stability index came to 3.94.

LWKMKCRRNLEEDDYLHKDTGETS [P6C]: the protein stability index worked out at 3.52.

In the case of LWKMKPRRNLEEDDYLHKMTGETS [D19M], the protein stability index was found to be 3.81.

Consider LWKMKPRRNLEEDDYLHKFTGETS [D19F], for which the protein stability index is 3.

For the variant LWKMKPRRNLEEDDYLHKNTGETS [D19N], the protein stability index came to 4.39.

With LWKMKPRRNLEEDDYLHKCTGETS [D19C], the protein stability index came out at 3.8.

As for LWKMKPRRNLEEDDYLHKSTGETS [D19S], the protein stability index stood at 3.48.

Take LWKMKPRRNLEEDDYLHSDTGETS [K18S]: the protein stability index worked out at 4.53.

Take LWKMKPRRNLEEDDYLHYDTGETS [K18Y]: the protein stability index is 4.03.

On to LWKMKPRRNLEEDDYLHMDTGETS [K18M], for which the protein stability index came out at 4.29.

Consider LWKMKPRRNLEEDDYLHPDTGETS [K18P], for which the protein stability index worked out at 4.47.

On to LWKMKPRRNLEEDDYLHCDTGETS [K18C], for which the protein stability index amounted to 4.28.

With LWKMKPRRNLEEDDYLHIDTGETS [K18I], the protein stability index stood at 3.58.

On to LWKMKPRRNLEEDDYLHHDTGETS [K18H], for which the protein stability index is 4.62.

Consider LWKMKPRRNLEEDDYLHQDTGETS [K18Q], for which the protein stability index came out at 4.46.

For LWKMKPRRNLEEDDYLHKDVGETS [T20V], the protein stability index was 4.05.

As for LWKMKPRRNLEEDDYLHKDIGETS [T20I], the protein stability index was determined as 4.12.

Regarding LWKMKPRRNLEEDDYLHKDYGETS [T20Y], the protein stability index stood at 3.74.

For LWKMKPRRNLEEDDYLHKDDGETS [T20D], the protein stability index was 5.09.

For the variant LWKMKPRKNLEEDDYLHKDTGETS [R8K], the protein stability index turned out to be 4.49.

In the case of LWKMKPRDNLEEDDYLHKDTGETS [R8D], the protein stability index amounted to 4.74.

For LWKMKPRMNLEEDDYLHKDTGETS [R8M], the protein stability index came to 4.6.

Take LWKMKPRSNLEEDDYLHKDTGETS [R8S]: the protein stability index came out at 4.43.

Regarding LWKMKPRRNLEEDDYLHKDTGETR [S24R], the protein stability index worked out at 3.97.

For the variant LWKMKPRRNLEEDDYLHKDTGETL [S24L], the protein stability index worked out at 4.1.

As for LWKMKPRRNLEEDDYLHKDTGETV [S24V], the protein stability index was 4.38.

Turning to LWKMKPRRNLEEDDYLHKDTGETT [S24T], the protein stability index turned out to be 4.6.

As for LWKMKPRRNLEEDDYLHKDTGETD [S24D], the protein stability index was found to be 4.65.

For the variant LWKMKPRRNLEEDDYLNKDTGETS [H17N], the protein stability index came to 4.28.

Take LWKMKPRRNLEEDDYLTKDTGETS [H17T]: the protein stability index is 4.82.

Regarding LEKMKPRRNLEEDDYLHKDTGETS [W2E], the protein stability index was 5.45.

Turning to LIKMKPRRNLEEDDYLHKDTGETS [W2I], the protein stability index was 5.05.

On to LYKMKPRRNLEEDDYLHKDTGETS [W2Y], for which the protein stability index was determined as 4.92.

On to LVKMKPRRNLEEDDYLHKDTGETS [W2V], for which the protein stability index is 4.99.

As for LFKMKPRRNLEEDDYLHKDTGETS [W2F], the protein stability index amounted to 4.55.

Turning to LWKMKPRRNLEEDDNLHKDTGETS [Y15N], the protein stability index was determined as 4.57.

For LWKMKPRRNLEEDDPLHKDTGETS [Y15P], the protein stability index turned out to be 4.81.

Regarding LWKMKPRRNLEEDDYLHKDTLETS [G21L], the protein stability index worked out at 3.91.

Turning to LWKMKPRRNLEEDDYLHKDTHETS [G21H], the protein stability index was found to be 4.42.

Turning to LWKMKPRRNLEEDDYLHKDTEETS [G21E], the protein stability index came out at 4.65.

As to LWKMKPRRNLEEDDYLHKDTGEYS [T23Y], the protein stability index was 4.02.

On to LWKMKPRRNLEEDDYLHKDTGEMS [T23M], for which the protein stability index came out at 3.99.

For the variant LWKMKPRRNLEEDDYLHKDTGECS [T23C], the protein stability index amounted to 4.05.

Consider LWKMKPRRNLEEDDYLHKDTGEWS [T23W], for which the protein stability index was 3.54.

For LWKMKPRRNLEEDDYLHKDTGEFS [T23F], the protein stability index was determined as 3.92.

LWKMKPRRNLEEDDYLHKDTGELS [T23L]: the protein stability index was 4.12.

For LWKMKPRRNLEEDDYLHKDTGEAS [T23A], the protein stability index is 4.63.

Take LWKMKPRRNLEADDYLHKDTGETS [E12A]: the protein stability index is 4.06.

On to LWKMKPRRNLEEKDYLHKDTGETS [D13K], for which the protein stability index turned out to be 4.43.

For the variant LWKMKPRRNLEENDYLHKDTGETS [D13N], the protein stability index came to 4.35.

For the variant LWKMKPRRNLEESDYLHKDTGETS [D13S], the protein stability index came to 3.85.

In the case of LWKMKPRRNLEEGDYLHKDTGETS [D13G], the protein stability index is 4.61.

In the case of LWKMKPRRNLEEDDYLHKDTGKTS [E22K], the protein stability index was 3.83.

Regarding LWKMKPRRNLEEDDYLHKDTGATS [E22A], the protein stability index was 3.92.

As to LWKMKPRRNLEEDDYVHKDTGETS [L16V], the protein stability index was found to be 4.52.
